In the Immune Epitope Database (IEDB):
Each block holds one sequence with its values, some of them ahead of it.

Columns and labels:
HLA-B*35:01 [1] = assay: IEDB peptide-MHC binding, purified MHC/direct/fluorescence; filed as Kd, often an IC50 or EC50 that approximates it; ≥ and ≤ were set here for values at or beyond the usual limits of such assays
HLA-B*46:01 = assay: IEDB peptide-MHC binding, purified MHC/competitive/fluorescence; filed as Kd, often an IC50 or EC50 that approximates it; ≥ and ≤ were set here for values at or beyond the usual limits of such assays
HLA-A*01:01 = assay: IEDB peptide-MHC binding, purified MHC/direct/fluorescence; filed as Kd, often an IC50 or EC50 that approximates it; ≥ and ≤ were set here for values at or beyond the usual limits of such assays
HLA-A*02:01 [2] = assay: as above
HLA-A*02:03 = assay: as above
HLA-A*02:11 = assay: as above
HLA-A*02:12 = assay: as above
HLA-A*02:19 = assay: as above
HLA-A*03:01 [3] = assay: as above
HLA-A*11:01 [4] = assay: as above
HLA-A*23:01 = assay: as above
HLA-A*24:03 = assay: as above
HLA-A*26:01 [5] = assay: as above
HLA-A*31:01 = assay: as above
HLA-B*07:02 = assay: as above
HLA-B*15:01 [6] = assay: as above
HLA-B*27:05 = assay: as above
HLA-B*58:01 = assay: as above
HLA-A*02:06 = assay: IEDB peptide-MHC binding, purified MHC/competitive/fluorescence; filed as Kd, often an IC50 or EC50 that approximates it; ≥ and ≤ were set here for values at or beyond the usual limits of such assays; settings: source organism: Influenza A virus (A/duck/Hong Kong/3096/99(H6N2))
HLA-A*26:02 = assay: as above; settings: source organism: Influenza A virus (A/duck/Hong Kong/3096/99(H6N2))
HLA-A*68:02 [7] = assay: as above; settings: source organism: Influenza A virus (A/duck/Hong Kong/3096/99(H6N2))
HLA-B*08:01 [8] = assay: as above; settings: source organism: Influenza A virus (A/duck/Hong Kong/3096/99(H6N2))
HLA-B*15:17 = assay: as above
HLA-B*35:01 [9] = assay: as above; settings: source organism: Influenza A virus (A/duck/Hong Kong/3096/99(H6N2))
HLA-B*39:01 = assay: as above
HLA-B*57:01 = assay: as above
HLA-A*69:01 [10] = assay: IEDB peptide-MHC binding, purified MHC/direct/fluorescence; filed as Kd, often an IC50 or EC50 that approximates it; ≥ and ≤ were set here for values at or beyond the usual limits of such assays
HLA-B*08:01 [11] = assay: as above
HLA-B*40:01 = assay: as above
HLA-B*44:02 = assay: as above
HLA-A*02:01 [12] = assay: IEDB peptide-MHC binding, purified MHC/competitive/fluorescence; ≥ and ≤ were set here for values at or beyond the usual limits of such assays; settings: source organism: Zaire ebolavirus
HLA-A*03:01 [13] = assay: as above; settings: source organism: Zaire ebolavirus
HLA-A*11:01 [14] = assay: as above; settings: source organism: Zaire ebolavirus
HLA-A*02:16 = assay: IEDB peptide-MHC binding, purified MHC/direct/fluorescence; filed as Kd, often an IC50 or EC50 that approximates it; ≥ and ≤ were set here for values at or beyond the usual limits of such assays
HLA-A*29:02 = assay: as above
HLA-A*68:02 [15] = assay: as above
HLA-A*02:01 [16] = assay: IEDB peptide-MHC binding, purified MHC/competitive/fluorescence; filed as Kd, often an IC50 or EC50 that approximates it; ≥ and ≤ were set here for values at or beyond the usual limits of such assays
HLA-A*26:01 [17] = assay: as above
HLA-A*69:01 [18] = assay: as above
HLA-B*15:01 [19] = assay: as above
HLA-B*18:01 = assay: as above
HLA-B*27:03 = assay: as above; settings: source organism: Zaire ebolavirus
HLA-B*51:01 = assay: as above
[20] = source organism: Influenza A virus (A/tiger/Thailand/CU-T4/04(H5N1))
[21] = source organism: Influenza A virus(A/swine/Shandong/fZC/2003(H9N2))
[22] = source organism: Influenza A virus (A/duck/Hong Kong/3096/99(H6N2))
[23] = source organism: Escherichia coli O157:H7
[24] = source organism: Coxiella burnetii
[25] = source organism: Zaire ebolavirus

Sequence: FAAWIQQTY
Kd (HLA-B*35:01 [1]; source organism: Vibrio parahaemolyticus RIMD 2210633): 0.01 µM
Kd (HLA-B*46:01; source organism: Vibrio parahaemolyticus AN-5034): 0.125 µM

Sequence: TMLYNKMEF
Kd (HLA-A*01:01; [20]): ≥ 20 µM
Kd (HLA-A*02:01 [2]; [20]): 0.604 µM
Kd (HLA-A*02:03; [21]): ≥ 20 µM
Kd (HLA-A*02:11; [21]): 0.157 µM
Kd (HLA-A*02:12; [21]): 3.47 µM
Kd (HLA-A*02:19; [21]): ≥ 5 µM
Kd (HLA-A*03:01 [3]; [20]): ≥ 20 µM
Kd (HLA-A*11:01 [4]; [20]): ≥ 20 µM
Kd (HLA-A*23:01; [20]): 0.047 µM
Kd (HLA-A*24:03; [20]): 0.0114 µM
Kd (HLA-A*26:01 [5]; [21]): ≥ 20 µM
Kd (HLA-A*31:01; [20]): ≥ 20 µM
Kd (HLA-B*07:02; [20]): ≥ 20 µM
Kd (HLA-B*15:01 [6]; source organism: Influenza A virus (A/Puerto Rico/8/34/Mount Sinai(H1N1))): 0.118 µM
Kd (HLA-B*27:05; [20]): ≥ 20 µM
Kd (HLA-B*58:01; [20]): ≥ 20 µM
Kd (HLA-A*02:06): 0.312 µM
Kd (HLA-A*26:02): ≥ 20 µM
Kd (HLA-A*68:02 [7]): 4.44 µM
Kd (HLA-B*08:01 [8]): 3 µM
Kd (HLA-B*15:17; [22]): 0.311 µM
Kd (HLA-B*35:01 [9]): 1.26 µM
Kd (HLA-B*39:01; [22]): ≥ 20 µM
Kd (HLA-B*46:01; [22]): ≥ 20 µM
Kd (HLA-B*57:01; [22]): ≥ 20 µM

Kd (HLA-A*01:01; [23]): ≥ 20 µM
Kd (HLA-A*02:01 [2]; [23]): ≥ 20 µM
Kd (HLA-A*03:01 [3]; [23]): ≥ 20 µM
Kd (HLA-A*11:01 [4]; [23]): ≥ 20 µM
Kd (HLA-A*26:01 [5]; [23]): ≥ 20 µM
Kd (HLA-A*31:01; [23]): ≥ 20 µM
Kd (HLA-A*69:01 [10]; [23]): ≥ 20 µM
Kd (HLA-B*08:01 [11]; [23]): ≥ 20 µM
Kd (HLA-B*15:01 [6]; [23]): ≥ 20 µM
Kd (HLA-B*27:05; [23]): 3.25 µM
Kd (HLA-B*35:01 [1]; [23]): ≥ 10 µM
Kd (HLA-B*40:01; [23]): ≥ 20 µM
Kd (HLA-B*44:02; [23]): ≥ 20 µM
Kd (HLA-B*58:01; [23]): ≥ 20 µM
Sequence: IRNPPMVVF

Sequence: WAPEGDIRL
Kd (HLA-A*01:01; [24]): ≥ 20 µM
Kd (HLA-A*02:01 [2]; [24]): 0.33 µM
Kd (HLA-A*03:01 [3]; [24]): ≥ 20 µM
Kd (HLA-A*11:01 [4]; [24]): ≥ 20 µM
Kd (HLA-A*24:03; [24]): ≥ 20 µM
Kd (HLA-A*26:01 [5]; [24]): ≥ 20 µM
Kd (HLA-A*31:01; [24]): ≥ 20 µM
Kd (HLA-A*69:01 [10]; [24]): ≥ 20 µM
Kd (HLA-B*07:02; [24]): 4.29 µM
Kd (HLA-B*08:01 [11]; [24]): ≥ 20 µM
Kd (HLA-B*15:01 [6]; [24]): ≥ 20 µM
Kd (HLA-B*27:05; [24]): ≥ 20 µM
Kd (HLA-B*35:01 [1]; [24]): 0.899 µM
Kd (HLA-B*40:01; [24]): ≥ 20 µM
Kd (HLA-B*44:02; [24]): ≥ 20 µM
Kd (HLA-B*58:01; [24]): ≥ 20 µM

Sequence: FLILPQAKK
IC50 (HLA-A*02:01 [12]): 64.7 µM
IC50 (HLA-A*03:01 [13]): 4.4 µM
IC50 (HLA-A*11:01 [14]): 1.67 µM
Kd (HLA-A*02:03; [25]): ≥ 20 µM
Kd (HLA-A*02:11; [25]): ≥ 20 µM
Kd (HLA-A*02:12; [25]): ≥ 20 µM
Kd (HLA-A*02:16; [25]): ≥ 20 µM
Kd (HLA-A*02:19; [25]): ≥ 20 µM
Kd (HLA-A*03:01 [3]; [25]): ≥ 20 µM
Kd (HLA-A*23:01; [25]): ≥ 20 µM
Kd (HLA-A*24:03; [25]): ≥ 20 µM
Kd (HLA-A*29:02; [25]): ≥ 20 µM
Kd (HLA-A*68:02 [15]; [25]): ≥ 20 µM
Kd (HLA-A*02:01 [16]; [25]): ≥ 20 µM
Kd (HLA-A*26:01 [17]; [25]): ≥ 20 µM
Kd (HLA-A*69:01 [18]; [25]): ≥ 20 µM
Kd (HLA-B*15:01 [19]; [25]): ≥ 20 µM
Kd (HLA-B*15:17; [25]): ≥ 20 µM
Kd (HLA-B*18:01; [25]): ≥ 20 µM
Kd (HLA-B*27:03): ≥ 20 µM
Kd (HLA-B*39:01; [25]): ≥ 20 µM
Kd (HLA-B*46:01; [25]): ≥ 20 µM
Kd (HLA-B*51:01; [25]): ≥ 20 µM
Kd (HLA-B*57:01; [25]): ≥ 20 µM

Sequence: GRFQEALKK
Kd (HLA-A*02:03; source organism: Choclo virus): ≥ 20 µM
Kd (HLA-A*02:11; source organism: Choclo virus): ≥ 20 µM
Kd (HLA-A*02:12; source organism: Choclo virus): ≥ 20 µM
Kd (HLA-A*02:16; source organism: Choclo virus): ≥ 20 µM
Kd (HLA-A*02:19; source organism: Choclo virus): ≥ 20 µM
Kd (HLA-A*03:01 [3]; source organism: Choclo virus): ≥ 20 µM
Kd (HLA-A*23:01; source organism: Choclo virus): ≥ 20 µM
Kd (HLA-A*24:03; source organism: Choclo virus): ≥ 20 µM
Kd (HLA-A*29:02; source organism: Choclo virus): ≥ 20 µM
Kd (HLA-A*68:02 [15]; source organism: Choclo virus): ≥ 20 µM
Kd (HLA-B*27:05; source organism: Orthohantavirus andesense): 0.0717 µM
Kd (HLA-A*02:01 [16]; source organism: Choclo virus): ≥ 20 µM
Kd (HLA-A*26:01 [17]; source organism: Choclo virus): ≥ 20 µM
Kd (HLA-A*69:01 [18]; source organism: Choclo virus): ≥ 20 µM
Kd (HLA-B*15:01 [19]; source organism: Choclo virus): ≥ 20 µM
Kd (HLA-B*15:17; source organism: Choclo virus): ≥ 20 µM
Kd (HLA-B*18:01; source organism: Choclo virus): ≥ 20 µM
Kd (HLA-B*39:01; source organism: Choclo virus): ≥ 20 µM
Kd (HLA-B*46:01; source organism: Choclo virus): ≥ 20 µM
Kd (HLA-B*51:01; source organism: Choclo virus): ≥ 20 µM
Kd (HLA-B*57:01; source organism: Choclo virus): ≥ 20 µM
